T1: HPV52 E7 protein, recombinant (His-TEV-E7 fusion from E. coli) (Human Papilloma Virus type 52 (HPV52), UniProt P36831 1-99, CKII phosphorylation of the consensus site serines in the antigen preparation of Example 2)
T1 construct: mature; also called VE7_HPV52; not shown: N-terminal 6x Histidine tag and TEV cleavage site of the vector
T1 sequence: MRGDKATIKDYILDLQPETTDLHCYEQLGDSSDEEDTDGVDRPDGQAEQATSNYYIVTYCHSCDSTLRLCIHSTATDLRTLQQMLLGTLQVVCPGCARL

T2: HPV33 E7 protein, recombinant (His-TEV-E7 fusion from E. coli) (Human Papilloma Virus type 33 (HPV33), UniProt P06429 1-97, CKII phosphorylation of the consensus site serines in the antigen preparation of Example 2; biotin on primary amines in the SPR assay)
T2 construct: mature; also called VE7_HPV33; not shown: N-terminal 6x Histidine tag and TEV cleavage site of the vector
T2 sequence: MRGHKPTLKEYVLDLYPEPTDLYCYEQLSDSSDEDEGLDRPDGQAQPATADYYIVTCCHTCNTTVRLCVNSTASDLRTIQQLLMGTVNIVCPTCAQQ

T3: HPV31 E7 protein, recombinant (His-TEV-E7 fusion from E. coli) (Human Papilloma Virus type 31 (HPV31), UniProt P17387 1-98, CKII phosphorylation of the consensus site serines in the antigen preparation of Example 2)
T3 construct: mature; also called VE7_HPV31; not shown: N-terminal 6x Histidine tag and TEV cleavage site of the vector
T3 sequence: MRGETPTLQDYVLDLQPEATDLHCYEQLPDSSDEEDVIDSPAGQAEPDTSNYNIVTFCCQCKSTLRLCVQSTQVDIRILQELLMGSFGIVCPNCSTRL

T4: HPV39 E7 protein, recombinant (His-TEV-E7 fusion from E. coli) (Human Papilloma Virus type 39 (HPV39), UniProt P24837 1-109, CKII phosphorylation of the consensus site serine in the antigen preparation of Example 2)
T4 construct: mature; also called VE7_HPV39; not shown: N-terminal 6x Histidine tag and TEV cleavage site of the vector
T4 sequence: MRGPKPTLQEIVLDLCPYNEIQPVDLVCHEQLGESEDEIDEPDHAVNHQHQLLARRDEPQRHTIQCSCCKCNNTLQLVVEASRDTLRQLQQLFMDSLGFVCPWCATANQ

T5: HPV18 E7 protein, recombinant (His-TEV-E7 fusion from E. coli) (Human Papilloma Virus type 18 (HPV18), UniProt P06788 1-105, CKII phosphorylation of the consensus site serines in the antigen preparation of Example 2; biotin on primary amines in the SPR assay)
T5 construct: mature; also called VE7_HPV18; not shown: N-terminal 6x Histidine tag and TEV cleavage site of the vector
T5 sequence: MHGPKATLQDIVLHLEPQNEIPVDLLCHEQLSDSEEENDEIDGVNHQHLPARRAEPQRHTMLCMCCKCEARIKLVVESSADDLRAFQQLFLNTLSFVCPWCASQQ


Key:
[1] = target: T1, HPV52 E7 protein, recombinant …; assay: ELISA, HPV52E7 immobilised on polystyrene plates in 3-fold dilution steps, detected with ACAB452
[2] = target: T2, HPV33 E7 protein, recombinant …; assay: ELISA and dot-blot, semiquantitative crossreactivity (+ weak interaction)
Protocol: (§1) Using ELISA and dot-blot techniques semiquantitative crossreactivities of the isolated mAbs was analysed. For this various mAbs were tested against the accepted high risk species.

[3] = target: T3, HPV31 E7 protein, recombinant …; assay: ELISA, HPV31E7 immobilised on polystyrene plates in 3-fold dilution steps, detected with ACAB452; no concentrations printed on the X axis
[4] = target: T4, HPV39 E7 protein, recombinant …; assay: ELISA and dot-blot, semiquantitative crossreactivity (++ strong positive)
Protocol: as §1

[5] = target: T5, HPV18 E7 protein, recombinant …; assay: ELISA and dot-blot, semiquantitative crossreactivity (+ weak interaction)
Protocol: as §1

Row | Binder | binding result [1] | binding result [2] | binding result [3] | binding result [4] | binding result [5]
1 | ACAB452 (antibody, IgG1, V domains shown, also called HPV45E7 IgG1 antibody ACAB452) VH: DVQLQESGPGLVKPSQSLSLTCTVTGYSITSDYAWNWIRQFPGNKLEWVGYITYSGSTNYNPSLKSRISITRDTSKNQFFLQFNSVTSEDTATYFCARSWFAYWGQGTLVTVSS VL: DIVMTQTPLSLPVSLGDQASISCRSSQSLVHSNGNTYLHWFLQKPGQSPKLLIYKVSNRFSGVPDRFSGSGSGTDFTLKISRVEAEDLGVYFCLQSAHVPLTFGAGTKLELTR | no binding (tested: 800 nM immobilised antigen (per legend)) | binds | binds | binds | –
2 | ACAB161 (antibody, IgG2a, V domains shown, the printed entries run on into the first residues of the constant domains; also called HPV16E7 IgG2a antibody ACAB161) VH: EVMLVESGGGLVKPGGSLKLSCAASGFTFSRYTMSWVRQTPEKRLEWVATISSGGTNTNYTDSVKGRFTISRDNAKNNLYLQMSSLRSEDTALYYCTRGVRRGDGYAMDYWGQGTSVTVSS VL: DIVLTQAAPSVPVTPGESVSISCRSTKSLLHSNGNTYLYWFLQRPGQSPQALIYRTSNLASGVPDRFSGSGSGTAFTLRISRVEAEDVGVYYCMQHLEYPLTFGAGTKLELKR | – | – | – | – | binds
